Measurements: publication PMC3841061

Target: P2Y1R-i3-YFP-long2/tail-HT (human) (UniProt P47900)
Experiment: FRET or BRET

UniProt P47900, sequence (P47900 whole entry): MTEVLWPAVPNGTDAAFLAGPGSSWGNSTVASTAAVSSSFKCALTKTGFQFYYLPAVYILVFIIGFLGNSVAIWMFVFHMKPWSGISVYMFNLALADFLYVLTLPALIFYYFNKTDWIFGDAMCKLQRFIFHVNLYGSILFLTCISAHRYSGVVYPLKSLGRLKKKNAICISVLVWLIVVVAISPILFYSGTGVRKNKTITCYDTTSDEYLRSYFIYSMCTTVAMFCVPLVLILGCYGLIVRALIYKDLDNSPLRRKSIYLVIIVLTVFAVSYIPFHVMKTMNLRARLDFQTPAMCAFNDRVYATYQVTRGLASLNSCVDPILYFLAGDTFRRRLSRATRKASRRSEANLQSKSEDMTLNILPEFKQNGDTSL

ΔnF/ICFP by ADPβS 10 μmol/L (agonist-induced increase in FRET): 0.014
Substance: Gαq-CFP (from UniProt P21279 1-359) (natural protein)
